Biological target: W619_1-LOV, short LOV protein from Pseudomonas putida (Pseudomonas putida)
Assay: crystal structure; apo-state; sitting drops grown in the dark, 100 mM MES pH 6.0-6.3, 1 M ammonium sulfate, 14 °C; space group I4(1), two molecules per asymmetric unit

stoichiometry N: 2
Substance: W619_1-LOV, short LOV protein from Pseudomonas putida (natural protein)
